The results in this text go back to the PETadex activity labels (doi:10.1016/j.bbalip.2005.11.003).

The labels stand for the following.
B1: unnamed (protein)
chain: MLPLWTLSLLLGAVAGKEVCYERLGCFSDDSPWSGITERPLHILPWSPKDVNTRFLLYTNENPNNFQEVAADSSSISGSNFKTNRKTRFIIHGFIDKGEENWLANVCKNLFKVESVNCICVDWKGGSRTGYTQASQNIRIVGAEVAYFVEFLQSAFGYSPSNVHVIGHSLGAHAAGEAGRRTNGTIGRITGLDPAEPCFQGTPELVRLDPSDAKFVDVIHTDGAPIVPNLGFGMSQVVGHLDFFPNGGVEMPGCKKNILSQIVDIDGIWEGTRDFAACNHLRSYKYYTDSIVNPDGFAGFPCASYNVFTANKCFPCPSGGCPQMGHYADRYPGKTNDVGQKFYLDTGDASNFARWRYKVSVTLSGKKVTGHILVSLFGNKGNSKQYEIFKGTLKPDSTHSNEFDSDVDVGDLQMVKFIWYNNVINPTLPRVGASKIIVETNVGKQFNFCSPETVREEVLLTLTPC
B2: unnamed (protein)
chain: MWLLPLVLTSLASSATWAGQPASPPVVDTAQGRVLGKYVSLEGLAQPVAVFLGVPFAKPPLGSLRFAPPQPAEPWSFVKNTTSYPPMCCQDPVVEQMTSDLFTNGKERLTLEFSEDCLYLNIYTPADLTKRGRLPVMVWIHGGGLVLGGAPMYDGVVLAAHENVVVVAIQYRLGIWGFFSTGDEHSRGNWGHLDQVAALHWVQENIANFGGDPGSVTIFGESAGGESVSVLVLSPLAKNLFHRAISESGVALTVALVRKDMKAAAKQIAVLAGCKTTTSAVFVHCLRQKSEDELLDLTLKMKFLTLDFHGDQRESHPFLPTVVDGVLLPKMPEEILAEKDFNTVPYIVGINKQEFGWLLPTMMGFPLSEGKLDQKTATSLLWKSYPIANIPEELTPVATDKYLGGTDDPVKKKDLFLDLMGDVVFGVPSVTVARQHRDAGAPTYMYEFQYRPSFSSDKKPKTVIGDHGDEIFSVFGFPLLKGDAPEEEVSLSKTVMKFWANFARSGNPNGEGLPHWPMYDQEEGYLQIGVNTQAAKRLKGEEVAFWNDLLSKEAAKKPPKIKHAEL
B3: unnamed (protein)
chain: MLDMPIDPVYYQLAEYFDSLPKFDQFSSAREYREAINRIYEERNRQLSQHERVERVEDRTIKGRNGDIRVRVYQQKPDSPVLVYYHGGGFVICSIESHDALCRRIARLSNSTVVSVDYRLAPEHKFPAAVYDCYDATKWVAENAEELRIDPSKIFVGGDSAGGNLAAAVSIMARDSGEDFIKHQILIYPVVNFVAPTPSLLEFGEGLWILDQKIMSWFSEQYFSREEDKFNPLASVIFADLENLPPALIITAEYDPLRDEGEVFGQMLRRAGVEASIVRYRGVLHGFINYYPVLKAARDAINQIAALLVFD
B4: unnamed (protein)
chain: MLHLVCLALLCHVARGLPTQASHNAQPVINLGYARYQGVRLEAGVDEFLGMRYASPPIGDLRFRAPQDPPANQTLQSATEYGPICIGLDEEESPGDISEDCLFINVFKPSTATSQSKLPVWLFIQGGGYAENSNANYNGTQVIQASDDVIVFVTFNYRVGALGFLASEKVRQNGDLNAGLLDQRKALRWVKQYIEQFGGDPDHIVIHGVSAGAGSVAYHLSAYGGKDEGLFIGAIVESSFWPTQRTVSEMEFQFERFVNDTGCSSARDSLECLREQDIATIQKGNTGSPFPGGSSSPLPDWYFLPVTDGSLVPDELYNAFDAGNFIKVPVLVGDDTDEGSNFAYNASSSADVSRFFKNNYPNLTSQQLNEINQVYPRGKLLPRHAAYFGASSAAYGDATFTCPGNHVASSAARYLPNSVWNYRVNIIDESNIAGGIGVPHTFELPAIFGAGSTGTLSSDSSYLTYNAAIIPVTMHYFISFVQTLNPNTYRYATAPEWNTWGNGQRLRLQTNDTAMEAVPESSLQDCAFWKSLTVPMEV

Substrate in one data set: triacetin
The conditions noted are these: pH 7; 25 °C.
What is called Km is the concentration of substrate that gives half-maximal velocity. By kcat is commonly meant the number of substrate molecules converted per active site and unit of time at saturation. One may read the kcat/Km as the second-order rate constant that governs catalysis at low substrate concentration. Turning to B1, the Km was found to be 190000 µM, the kcat turned out to be 8 s⁻¹ and the kcat/Km came out at 42.1 M⁻¹ s⁻¹.

In the case of B2, the Km was 3000 µM, the kcat was 60 s⁻¹ and the specificity constant (kcat/Km) stood at 20000 M⁻¹ s⁻¹.

In the case of B3, the Km is 10000 µM, the kcat was found to be 40 s⁻¹ and the catalytic efficiency (kcat/Km) turned out to be 4000 M⁻¹ s⁻¹.

Take B4: the Km was determined as 15000 µM, the kcat stood at 265 s⁻¹ and the kcat/Km is 17700 M⁻¹ s⁻¹.

Substrate in the next data set: tributyrin
The conditions noted are these: pH 7; 25 °C.
Regarding B1, the Km was found to be 400 µM, the kcat came out at 7890 s⁻¹ and the catalytic efficiency (kcat/Km) came to 1.97e+07 M⁻¹ s⁻¹.

In the case of B2, the Km was 50 µM, the kcat was found to be 70 s⁻¹ and the kcat/Km worked out at 1.4e+06 M⁻¹ s⁻¹.

As for B3, the Km amounted to 50 µM, the kcat was determined as 95 s⁻¹ and the kcat/Km came out at 1.9e+06 M⁻¹ s⁻¹.

Substrate in a further data set: tripropionin
The conditions noted are these: pH 7; 25 °C.
In the case of B1, the Km amounted to 8000 µM, the kcat turned out to be 3320 s⁻¹ and the specificity constant (kcat/Km) amounted to 415000 M⁻¹ s⁻¹.

For the protein B2, the Michaelis-Menten constant (Km) came to 300 µM, the kcat turned out to be 50 s⁻¹ and the specificity constant (kcat/Km) was determined as 167000 M⁻¹ s⁻¹.

For the protein B3, the Km came out at 300 µM, the kcat came to 110 s⁻¹ and the kcat/Km was determined as 367000 M⁻¹ s⁻¹.

In the case of B4, the Michaelis constant (Km) worked out at 350 µM, the kcat is 60 s⁻¹ and the kcat/Km is 171000 M⁻¹ s⁻¹.

Substrate in the next data set: vinyl acetate
The conditions noted are these: pH 7; 25 °C.
B1: the Km is 315000 µM, the kcat was 170 s⁻¹ and the kcat/Km worked out at 540 M⁻¹ s⁻¹.

Take B2: the Michaelis constant (Km) was determined as 4000 µM, the kcat came out at 315 s⁻¹ and the kcat/Km was determined as 78800 M⁻¹ s⁻¹.

Take B3: the Km came out at 4000 µM, the kcat is 50 s⁻¹ and the kcat/Km stood at 12500 M⁻¹ s⁻¹.

As for B4, the Km was 3000 µM, the catalytic constant (kcat) came out at 400 s⁻¹ and the catalytic efficiency (kcat/Km) turned out to be 133000 M⁻¹ s⁻¹.

Substrate in another data set: vinyl butyrate
The conditions noted are these: pH 7; 25 °C.
As to B1, the Km was determined as 25000 µM, the kcat came to 625 s⁻¹ and the kcat/Km was found to be 25000 M⁻¹ s⁻¹.

For the protein B2, the Km is 2000 µM, the catalytic constant (kcat) came out at 460 s⁻¹ and the kcat/Km amounted to 230000 M⁻¹ s⁻¹.

For the protein B3, the Km turned out to be 2500 µM, the kcat was found to be 210 s⁻¹ and the kcat/Km was found to be 84000 M⁻¹ s⁻¹.

B4: the Km is 2000 µM, the kcat was found to be 25 s⁻¹ and the kcat/Km amounted to 12500 M⁻¹ s⁻¹.

Substrate in the next data set: vinyl laurate
Particulars: pH 7; 25 °C.
With B1, the Km is 4000 µM, the kcat is 375 s⁻¹ and the kcat/Km came to 93800 M⁻¹ s⁻¹.

Substrate in the next data set: vinyl propionate
Particulars: pH 7; 25 °C.
Take B1: the Km came to 75000 µM, the kcat amounted to 800 s⁻¹ and the kcat/Km was found to be 10700 M⁻¹ s⁻¹.

Regarding B2, the Km was determined as 5000 µM, the kcat is 295 s⁻¹ and the kcat/Km came to 59000 M⁻¹ s⁻¹.

Take B3: the Km was 7000 µM, the kcat was determined as 200 s⁻¹ and the kcat/Km stood at 28600 M⁻¹ s⁻¹.

As for B4, the Km turned out to be 3000 µM, the kcat is 160 s⁻¹ and the kcat/Km stood at 53300 M⁻¹ s⁻¹.

Substrate in another data set: p-NP-C4
Particulars: pH 7; 25 °C.
Take B2: the Km stood at 80 µM, the kcat stood at 18 s⁻¹ and the kcat/Km came out at 225000 M⁻¹ s⁻¹.

Regarding B3, the Km was found to be 40 µM, the kcat is 140 s⁻¹ and the kcat/Km worked out at 3.5e+06 M⁻¹ s⁻¹.
